Measurements taken from paper PMC8534903.

System: His-Mwt (matrix protein M) (Human respiratory syncytial virus (A2?))
Assay: EMSA
Conditions: 10 mM HEPES (pH not stated), 0.25 mM DTT, 50 mM KCl, 10 uL, 15 min at room temperature; 0.8% agarose gel, 40 V, 8 h, 4 C

In the case of control luciferase RNA (T7 transcript), the K half is reported as 2100 nM.
